Assay results published in patent US20250195647A1 (CORBUS PHARMACEUTICALS, published 2025).
Each block holds one binder with its values, some of them ahead of it.

Tests used:
[1] = biological target: T1, αvβ8 expressed on the surface of LN229 cells (UniProt P06756 31-1048; P26012 43-769); experiment: cell-based competition (adhesion) assay: LN229 cells expressing αvβ8 on plate-immobilized L-TGFβ with increasing antibody, bound cells quantified by Crystal Violet, 4-parameter fit
T1 construct: whole, on cells; also called avb8 on LN229 cells
Experimental: (§1) Exemplary antibodies of the disclosure were evaluated for their ability to block binding of the latent form of TGFβ (L-TGFβ) to in a cell-based competition assay. TGFβ is ubiquitously expressed in the latent form and L-TGFβ promotes an immune suppressive phenotype within the tumor microenvironment. L-TGFβ was immobilized on a polystyrene plate and incubated with LN229 cells expressing and increasing concentrations of muAb1 for 30 mins at 37° C. Bound LN229 cells were quantified by Crystal Violet. Data were fit to a 4-parameter displacement curve to determine IC₅₀. […] The affinities of the two antibodies are similar as measured in this assay.

[2] = biological target: T1, αvβ8 expressed on the surface of LN229 …; experiment: cell-based competition (adhesion) assay: LN229 cells expressing αvβ8 on plate-immobilized L-TGFβ, Crystal Violet readout
Experimental: as §1

integrin αVβ8 (murine) = biological target: T2, integrin αVβ8 (murine) (murine, UniProt P43406 31-988; Q0VBD0 43-681); experiment: SPR, mAb captured on anti-Fc CM5 chip, integrin injected, 37 C, 1:1 fit
T2 construct: Integrin heterodimer injected as analyte in SPR; also called mαVβ8
Experimental: (§2) Antibodies were assessed by surface plasmon resonance (SPR) for the ability to bind to integrin heterodimers. mAbs were immobilized on an anti-Fc CM5 sensor chip, and integrins (0.39-50 nM for and 200 nM for others) were injected at a flow rate of […] for a contact time of 180 s and dissociation time of 400 s, at 37° C. Data were fit (grey lines) to a 1:1 antibody:ligand binding model to determine Kd.

integrin αVβ8 (human) = biological target: T3, integrin αVβ8 (human) (human, UniProt P06756 31-992; P26012 43-684); experiment: as above
T3 construct: Integrin heterodimer injected as analyte in SPR; also called avb8
Experimental: as §2

T1 sequence (P06756 31-1048, chain 1 of 2): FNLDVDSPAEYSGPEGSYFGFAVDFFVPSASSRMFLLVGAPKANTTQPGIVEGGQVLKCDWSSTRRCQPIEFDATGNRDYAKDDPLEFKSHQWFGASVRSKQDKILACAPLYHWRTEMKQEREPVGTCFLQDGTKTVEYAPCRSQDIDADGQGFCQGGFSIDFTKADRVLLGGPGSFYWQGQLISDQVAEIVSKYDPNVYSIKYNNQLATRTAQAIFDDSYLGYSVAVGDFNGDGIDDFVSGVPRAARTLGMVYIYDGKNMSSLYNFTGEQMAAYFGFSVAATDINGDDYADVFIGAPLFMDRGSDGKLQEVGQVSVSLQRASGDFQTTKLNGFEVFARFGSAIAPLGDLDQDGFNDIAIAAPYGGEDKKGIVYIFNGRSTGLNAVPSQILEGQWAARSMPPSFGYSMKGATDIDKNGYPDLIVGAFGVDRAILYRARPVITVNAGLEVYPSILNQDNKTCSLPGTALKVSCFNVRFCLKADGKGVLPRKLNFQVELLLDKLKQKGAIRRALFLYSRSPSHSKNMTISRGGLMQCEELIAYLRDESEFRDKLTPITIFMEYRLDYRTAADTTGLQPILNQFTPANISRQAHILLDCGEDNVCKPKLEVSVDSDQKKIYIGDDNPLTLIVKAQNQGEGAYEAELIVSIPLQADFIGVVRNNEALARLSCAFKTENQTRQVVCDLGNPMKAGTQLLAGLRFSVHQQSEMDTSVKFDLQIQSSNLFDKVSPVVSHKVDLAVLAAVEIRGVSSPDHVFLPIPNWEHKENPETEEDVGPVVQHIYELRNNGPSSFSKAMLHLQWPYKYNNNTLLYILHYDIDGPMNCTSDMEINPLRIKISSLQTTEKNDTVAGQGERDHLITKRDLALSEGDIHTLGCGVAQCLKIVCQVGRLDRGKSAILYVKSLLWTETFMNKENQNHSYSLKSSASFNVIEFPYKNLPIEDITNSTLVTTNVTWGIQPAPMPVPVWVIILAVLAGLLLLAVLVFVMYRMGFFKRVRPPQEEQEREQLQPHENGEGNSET
T1 sequence (P26012 43-769, chain 2 of 2): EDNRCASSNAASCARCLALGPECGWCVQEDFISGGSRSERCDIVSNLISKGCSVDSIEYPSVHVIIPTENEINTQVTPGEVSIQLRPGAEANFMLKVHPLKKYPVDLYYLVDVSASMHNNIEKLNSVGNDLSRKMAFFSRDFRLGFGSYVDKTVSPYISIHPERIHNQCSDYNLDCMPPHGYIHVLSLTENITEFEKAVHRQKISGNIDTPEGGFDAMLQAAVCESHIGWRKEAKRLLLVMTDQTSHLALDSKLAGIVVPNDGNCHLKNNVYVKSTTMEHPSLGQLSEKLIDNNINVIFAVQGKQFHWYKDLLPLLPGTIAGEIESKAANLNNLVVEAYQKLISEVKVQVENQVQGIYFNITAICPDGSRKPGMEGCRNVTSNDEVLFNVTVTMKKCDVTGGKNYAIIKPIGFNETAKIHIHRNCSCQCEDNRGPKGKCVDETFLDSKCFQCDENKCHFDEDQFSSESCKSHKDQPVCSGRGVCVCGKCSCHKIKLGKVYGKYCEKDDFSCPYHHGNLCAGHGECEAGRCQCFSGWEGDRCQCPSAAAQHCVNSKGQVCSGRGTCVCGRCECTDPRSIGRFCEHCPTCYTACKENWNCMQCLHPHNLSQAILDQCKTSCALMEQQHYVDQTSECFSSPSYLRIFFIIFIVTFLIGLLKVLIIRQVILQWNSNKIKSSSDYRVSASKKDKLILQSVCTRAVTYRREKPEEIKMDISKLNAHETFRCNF
T2 sequence (P43406 31-988, chain 1 of 2): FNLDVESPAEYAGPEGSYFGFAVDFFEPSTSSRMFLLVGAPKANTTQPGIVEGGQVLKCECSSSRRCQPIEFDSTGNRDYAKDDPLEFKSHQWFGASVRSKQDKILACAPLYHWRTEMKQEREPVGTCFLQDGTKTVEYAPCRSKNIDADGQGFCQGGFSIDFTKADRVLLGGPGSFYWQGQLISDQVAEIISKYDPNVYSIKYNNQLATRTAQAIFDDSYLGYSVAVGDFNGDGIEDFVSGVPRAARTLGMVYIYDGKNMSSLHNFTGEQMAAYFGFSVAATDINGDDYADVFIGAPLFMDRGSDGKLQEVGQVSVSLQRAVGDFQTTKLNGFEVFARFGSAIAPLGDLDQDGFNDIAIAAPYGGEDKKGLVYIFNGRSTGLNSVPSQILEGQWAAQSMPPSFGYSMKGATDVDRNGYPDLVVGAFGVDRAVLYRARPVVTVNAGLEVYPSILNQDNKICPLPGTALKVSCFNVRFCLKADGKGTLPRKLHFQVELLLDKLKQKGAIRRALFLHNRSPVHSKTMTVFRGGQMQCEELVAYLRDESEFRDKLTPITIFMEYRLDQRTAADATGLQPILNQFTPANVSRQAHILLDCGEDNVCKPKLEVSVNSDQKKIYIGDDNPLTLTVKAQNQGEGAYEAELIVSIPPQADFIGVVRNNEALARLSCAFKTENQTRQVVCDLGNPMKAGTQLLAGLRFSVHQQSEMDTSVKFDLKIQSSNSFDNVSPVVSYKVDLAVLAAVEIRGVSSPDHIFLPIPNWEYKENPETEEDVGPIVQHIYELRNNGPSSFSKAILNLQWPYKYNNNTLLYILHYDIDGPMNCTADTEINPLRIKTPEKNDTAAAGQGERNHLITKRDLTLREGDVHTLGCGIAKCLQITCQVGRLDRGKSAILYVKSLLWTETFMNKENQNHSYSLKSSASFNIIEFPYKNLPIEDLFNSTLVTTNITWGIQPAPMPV
T2 sequence (Q0VBD0 43-681, chain 2 of 2): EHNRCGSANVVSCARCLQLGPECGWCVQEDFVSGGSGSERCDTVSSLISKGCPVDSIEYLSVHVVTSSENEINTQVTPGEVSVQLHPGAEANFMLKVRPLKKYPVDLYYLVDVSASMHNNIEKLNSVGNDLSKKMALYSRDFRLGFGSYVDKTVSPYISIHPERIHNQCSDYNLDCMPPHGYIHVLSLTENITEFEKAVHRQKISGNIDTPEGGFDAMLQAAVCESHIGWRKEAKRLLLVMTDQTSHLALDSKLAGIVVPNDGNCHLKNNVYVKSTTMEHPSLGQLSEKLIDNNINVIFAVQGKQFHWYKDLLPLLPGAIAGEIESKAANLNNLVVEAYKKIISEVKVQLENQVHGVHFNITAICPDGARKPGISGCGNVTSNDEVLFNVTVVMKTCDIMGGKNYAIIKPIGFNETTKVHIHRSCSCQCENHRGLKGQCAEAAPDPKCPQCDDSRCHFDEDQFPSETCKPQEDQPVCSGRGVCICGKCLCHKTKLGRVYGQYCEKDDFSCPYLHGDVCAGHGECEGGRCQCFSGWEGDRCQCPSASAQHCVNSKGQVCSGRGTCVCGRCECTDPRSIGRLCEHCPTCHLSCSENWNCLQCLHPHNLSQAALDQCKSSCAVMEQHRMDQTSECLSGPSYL
T3 sequence (P06756 31-992, chain 1 of 2): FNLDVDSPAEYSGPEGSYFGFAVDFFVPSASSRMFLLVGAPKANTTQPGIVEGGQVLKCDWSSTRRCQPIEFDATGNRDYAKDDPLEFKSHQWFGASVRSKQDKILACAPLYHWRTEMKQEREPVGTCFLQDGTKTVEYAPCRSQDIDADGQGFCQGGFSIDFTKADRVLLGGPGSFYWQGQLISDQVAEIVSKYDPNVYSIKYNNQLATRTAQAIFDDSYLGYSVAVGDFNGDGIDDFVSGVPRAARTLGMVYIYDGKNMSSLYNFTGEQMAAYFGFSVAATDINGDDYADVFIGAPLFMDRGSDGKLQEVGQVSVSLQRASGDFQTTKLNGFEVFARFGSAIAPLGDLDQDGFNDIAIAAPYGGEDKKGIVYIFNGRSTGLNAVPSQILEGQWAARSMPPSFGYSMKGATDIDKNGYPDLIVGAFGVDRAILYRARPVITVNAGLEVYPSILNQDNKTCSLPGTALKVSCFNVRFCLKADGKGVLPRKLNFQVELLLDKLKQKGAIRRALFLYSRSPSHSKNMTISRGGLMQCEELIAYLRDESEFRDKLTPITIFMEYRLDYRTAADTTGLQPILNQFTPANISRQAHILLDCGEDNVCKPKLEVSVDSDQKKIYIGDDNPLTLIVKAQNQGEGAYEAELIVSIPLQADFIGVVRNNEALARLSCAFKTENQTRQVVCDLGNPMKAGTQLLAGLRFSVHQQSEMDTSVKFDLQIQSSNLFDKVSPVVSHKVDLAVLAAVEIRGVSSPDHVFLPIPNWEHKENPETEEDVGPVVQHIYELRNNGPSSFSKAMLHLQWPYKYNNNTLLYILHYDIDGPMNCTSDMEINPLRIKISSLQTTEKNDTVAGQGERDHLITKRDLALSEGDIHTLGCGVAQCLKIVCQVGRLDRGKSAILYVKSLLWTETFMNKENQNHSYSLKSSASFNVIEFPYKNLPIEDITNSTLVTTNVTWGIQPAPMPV
T3 sequence (P26012 43-684, chain 2 of 2): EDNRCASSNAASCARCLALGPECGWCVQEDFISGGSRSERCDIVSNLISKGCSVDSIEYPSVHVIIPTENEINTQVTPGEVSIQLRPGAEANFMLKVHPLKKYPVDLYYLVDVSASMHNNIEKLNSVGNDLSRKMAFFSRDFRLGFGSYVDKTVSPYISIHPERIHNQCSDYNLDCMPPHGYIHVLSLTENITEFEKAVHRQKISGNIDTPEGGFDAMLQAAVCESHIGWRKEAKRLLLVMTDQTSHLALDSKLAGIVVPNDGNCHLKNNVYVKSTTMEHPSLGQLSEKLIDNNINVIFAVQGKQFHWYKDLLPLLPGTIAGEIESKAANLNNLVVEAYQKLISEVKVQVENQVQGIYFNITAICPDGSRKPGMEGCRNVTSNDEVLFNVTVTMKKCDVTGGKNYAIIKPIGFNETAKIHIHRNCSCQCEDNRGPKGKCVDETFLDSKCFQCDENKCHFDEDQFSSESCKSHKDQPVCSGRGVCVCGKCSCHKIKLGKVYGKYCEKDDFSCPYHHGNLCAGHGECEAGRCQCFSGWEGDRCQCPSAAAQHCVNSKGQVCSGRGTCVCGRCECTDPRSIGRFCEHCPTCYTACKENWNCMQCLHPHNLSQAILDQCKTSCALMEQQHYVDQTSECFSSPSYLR

IC50 [1]: < 5 nM | IC50 (read off the curve) [2]: ~4 nM | Kd (integrin αVβ8 (murine)): < 5 nM | Kd (integrin αVβ8 (human)): < 5 nM
B1: huAb1 (antibody, V domains shown)
VH: QIQLVQSGSELKKPGASVKVSCKASGYTFTKYSMHWVRQAPGQGLEWMARINTETGNPTYADGFRGRFVVSLDTSVSTAYLQISSLKAEDTAVYYCAIFYYGRDTWGQGTTVTVSS
VL: DIVMTQSPDSLAVSLGERATINCKSSQSLLHSRSRKNYLAWYQQKPGQPPKLLIYWASTRESGVPDRFSGSGSGTDFTLTISSLQAEDVAVYYCKQSYNLLSFGQGTKLEIK
notes: also called anti-αvβ8 antibody

IC50 [1]: < 5 nM | IC50 (read off the curve) [2]: ~1 nM | Kd (integrin αVβ8 (murine)): < 15 nM | Kd (integrin αVβ8 (human)): < 15 nM
B2: muAb1 (antibody, V domains shown)
VH: B1 VH
VL: B1 VL
notes: also called murine-human hybrid monoclonal anti-αVβ8 antibody; murine compatible version of huAb1
